Data as given in publication PMC11195132.
Like-named read-outs stand apart in the source and are kept apart here.

Columns and labels:
[1] = molecular target: tSH2 domain of SYK (residues M6-N269) fused to an N-terminal 6xHis tag (UniProt P43405); assay: FRET or BRET
[2] = molecular target: tSH2 domain of SYK (residues M6-N269) fused to an N-terminal 6xHis tag (UniProt P43405); assay: FRET or BRET; remark: listed apart in the source

Substance: unlabeled FCER1G-phospho-peptide (from UniProt P30273 54-82)
- IC50 [1]: 5 nM
- IC50 [2]: 5 nM
